# Test results reported in patent JP2023014062A (dated 2023).
# Assays:
# [1] = target: T1, SARS-CoV-2(従来株(武漢株))のSタンパク質のRBDタンパク質 (SARS-CoV-2(従来株(武漢株)), UniProt P0DTC2 322-536); assay: X-ray crystal structure of the RBD-Fab complex
# T1 construct: range 322-536
# [2] = target: T1, SARS-CoV-2(従来株(武漢株))のSタンパク質のRBDタンパク質; assay: ELISA, RBD coated at 2 μg/ml, Expi293 culture supernatant, HRP anti-human IgG
Binder,binding result [1],binding result [2]
"抗体NCV2SG48(Fab) (Fab, V domains shown, also called Fab(抗体NCV2SG48)) VH: EVQLVESGGGLIQPGGSLRLSCAASGFIVSRNYMNWVRQAPGKGLEWVALIYSGGSTFYADSVKGRFTISRDNSKNTLYLQMNSLRAEDTAVYYCARDLVVYGLDYWGQGTLVTVSS VL: AIQLTQSPSSLSASVGDRVTITCRASQGISSHLAWYQQKPGKAPKLLIFAASTLQSGVPSRFSGSGSGTDFTLTISSLQPEDFATYYCQHLNSNPPITFGQGTRLEIK",binds,–
"抗体NCV2SG53(Fab) (Fab, V domains shown, also called Fab(抗体NCV2SG53)) VH: QVQMVESGGGLVRPGGSLRLSCAASGFTFSDYYMSWIRQAPGKGLEWISYISSSGSSMNYADSVKGRFTISRDNAKNSLFLQMNSLRAEDTAVYYCAREFDLTKIIMVPPYWGQGTLVTVSS VL: AIQLTQSPSSLSASVGDRVTITCRASQGISSYLAWYQQKPGKAPKVLIYAASTLQSGVPSRFSGSGSGTDFTLTISSLQPEDFATYYCQQLKSYPLTFGGGTKVEIT",binds,–
"抗体NCV2SG53 (antibody, V domains shown) VH: QVQMVESGGGLVRPGGSLRLSCAASGFTFSDYYMSWIRQAPGKGLEWISYISSSGSSMNYADSVKGRFTISRDNAKNSLFLQMNSLRAEDTAVYYCAREFDLTKIIMVPPYWGQGTLVTVSS VL: AIQLTQSPSSLSASVGDRVTITCRASQGISSYLAWYQQKPGKAPKVLIYAASTLQSGVPSRFSGSGSGTDFTLTISSLQPEDFATYYCQQLKSYPLTFGGGTKVEIT",–,binds
